In patent publication US10280218B2, “Antibodies binding to BMP4, and uses thereof” (ACADEMISCH MEDISCH CENTRUM, priority 2014, dated 2019):
Residue numbers refer to the chain shown, from its start. Numbers in names are those of the source.

What was measured:
BMP7 = target: T1, BMP7 (Homo sapiens, UniProt P18075); test: Surface plasmon resonance (SPR), BMPs injected over VHH-coated chip; type: binding; settings: molecule coupled to chip; unit inferred; — not defined there (Table 1: No binding detected)
T1 sequence (P18075 293-431): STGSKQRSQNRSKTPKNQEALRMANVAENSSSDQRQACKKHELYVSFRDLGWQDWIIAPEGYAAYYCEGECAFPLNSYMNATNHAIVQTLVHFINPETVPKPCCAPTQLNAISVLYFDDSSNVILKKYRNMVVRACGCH
Description: (§1) To confirm their BMP specificities and to elucidate their binding affinities, our VHHs were subjected to surface plasmon resonance (SPR) analysis. In a first set of experiments, controls and VHHs (either as monomers or dimers) were coupled to SPR chips and the measurement of BMP affinities was obtained by injecting the different BMPs to the plate.
(§2) Serial dilutions (2.0-10 μg/ml) of purified VHHs were spotted on an amine-specific SensEye gold-film gel-type SPRchip (Ssens), using a Continuous Flow Microspotter (Wasatch Microfluidics, Salt Lake City, Utah, United States) as described (Lokate et al., 2007). BMP binding was analyzed on an IBIS MX96 (IBIS Technologies, Enschede, The Netherlands) instrument by performing injections with dilution series (0.05-2.0 μg/ml) of recombinant BMPs on the VHH-coated chip. In each injection, BMPs were injected and incubated for 8 min, followed by 15 min thorough washing with binding buffer (PBS+0.05% Tween20+0.05% sodium azide) to measure dissociation. Epitope binning was done by injecting VHH dilutions (2.0 μg/ml) over the chip, immediately after the dissociation step. Injections with blank binding buffer were used as reference. After each concatenated injection, the chip was regenerated with 10 mM glycine-HCl, pH 2.0. Experimental data were processed with SPRintX software (IBIS Technologies) and kinetic parameters were determined using Scrubber2 software (BioLogic Software, Campbell, ACT, Australia). Binding constants were obtained by global fitting to a one-site binding model.

BMP5 [1] = target: T2, BMP5 (Homo sapiens, UniProt P22003); test: as above; type: binding; settings: molecule coupled to chip; unit inferred
T2 sequence (P22003 317-454): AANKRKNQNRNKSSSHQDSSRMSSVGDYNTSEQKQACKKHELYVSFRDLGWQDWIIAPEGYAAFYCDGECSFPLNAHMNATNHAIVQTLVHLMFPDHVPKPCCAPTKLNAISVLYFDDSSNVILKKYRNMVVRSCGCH
Description: as §1, §2

BMP2 [2] = target: T3, BMP2 (Homo sapiens, UniProt P12643); test: as above; settings: molecule coupled to chip, —: No binding detected
T3 sequence (P12643 283-396): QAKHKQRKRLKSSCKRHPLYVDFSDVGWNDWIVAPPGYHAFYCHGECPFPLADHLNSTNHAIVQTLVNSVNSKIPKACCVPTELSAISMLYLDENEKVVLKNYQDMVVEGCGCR
Description: In a first set of experiments, controls and VHHs (either as monomers or dimers) were coupled to SPR chips and the measurement of BMP affinities was obtained by injecting the different BMPs to the plate.
as §2

BMP4 [3] = target: T4, BMP4 (Homo sapiens, UniProt P12644); test: as above; type: binding; parameters: purchased R&D systems; settings: molecule coupled to chip
T4 sequence (P12644 293-408): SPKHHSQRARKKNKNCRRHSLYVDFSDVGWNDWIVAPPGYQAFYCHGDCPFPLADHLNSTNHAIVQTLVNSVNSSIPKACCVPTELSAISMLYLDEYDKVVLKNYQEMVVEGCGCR
Description: as §1, §2

BMP6 = target: T5, BMP6 (Homo sapiens, UniProt P22004); test: as above; settings: molecule coupled to chip; unit inferred; — not defined there (Table 1: No binding detected)
T5 sequence (P22004 375-513): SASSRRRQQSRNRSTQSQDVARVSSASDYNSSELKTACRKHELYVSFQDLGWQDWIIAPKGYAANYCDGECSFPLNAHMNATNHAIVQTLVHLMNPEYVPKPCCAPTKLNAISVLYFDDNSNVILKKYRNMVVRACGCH
Description: as §1, §2

BMP4 [4] = target: T6, BMP4 (human); test: SPR
T6 chain: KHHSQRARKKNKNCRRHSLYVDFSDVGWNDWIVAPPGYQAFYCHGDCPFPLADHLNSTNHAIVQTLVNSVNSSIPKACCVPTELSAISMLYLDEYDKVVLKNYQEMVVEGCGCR

BMP2 [5] = target: T7, BMP2 (human); test: SPR
T7 chain: T3 sequence (P12643 283-396)

BMP2 [6] = target: T3, BMP2; test: BMP activity luciferase reporter assay (BRE-luciferase, ID1 promoter) in C2C12 cells; type: cell-based, mouse
Description: (§3) One of the most studied BMP target genes is the Inhibitor of Differentiation 1 (ID1). This is an immediate early gene that is activated by binding of the phosphorylated SMADs to its promoter region (López-Rovira et al., 2002). Thus, we employed the BMP-responsive C2C12 cells, which are stably transfected with the BRE-luciferase vector containing the BMP-Responsive-Element (the mouse ID1 promoter) cloned into the pGL3 luciferase vector (Zilberberg 2007). […] C2C12 cells were treated with the different BMPs with or without our VHHs or human Noggin at a concentration of 5 μg/ml. Luciferase activity was measured after 16 hours incubation. Most of the transcriptional data is in concordance with the results obtained with the phosphorylation of SMAD1/5/8.
(§4) C2C12 cells were plated in 96-well plates at 5×10^3 cells/well and cells were allowed to attach overnight. 100 μl of DMEM with 0.1% BSA were added in each well. VHH antibodies and human Fc-Noggin at the indicated concentrations were added at the same time. Wells with unstimulated cells were added as controls. Cells were treated in triplicate with the BMPs at the indicated concentrations for 16 hours. Luciferase activity was measured by adding 100 μl of luciferase substrate solution from the Bright-Glo™ Luciferase Assay System (Promega Benelux, Leiden, The Netherlands). After 3 minutes of incubation, luciferase activity was measured with Synergy HT Multi-Mode Microplate Reader (Biotek, Winooski, Vt., United States). Luciferase values were normalized to background activity (activity of wells with no cells) and represented as ratio to the activity of BMP-stimulated cells.
(§5) To evaluate the extent of this increase in potency, the IC50 of the different VHHs were determined in a dose-dependent inhibition assay in C2C12 cells (FIG. 25). C2C12 cells were plated in 96-well plates at 5×10^3 cells/well and cells were allowed to attach overnight 100 μl of DMEM with 0.1% BSA were added in each well. VHH antibodies were added at the indicated concentrations at the same time as 5 ng/ml BMP4 (FIG. 25A-B, D) or 50 ng/ml of BMP2 (FIG. 25C,D). Luciferase activity was measured after 16 hours. Values are represented as ratio to the activity of BMP-stimulated cells. […] However, its effects were more striking for BMP2 rather than BMP4 inhibition. […] The IC50 values for BMP4 inhibition observed in our VHHs are considerably lower than those observed for anti-BMP4 commercially available from R&D (Katagiri et al 1994) and those described in WO_2008/030611.
(§6) C2C12 cells were cultured in 96-well plates at 5×10^3 cells/well. After overnight attachment cells were stimulated with 10 ng/ml hBMP4 (Cat No. 314-BP-020; R&D Systems), 50 ng/ml hBMP2 (Cat No. 355-BM-010; R&D Systems), 200 ng/ml hBMP5 (Cat No. 615-BMC-020; R&D Systems), 50 ng/ml hBMP6 (Cat No. 506-BP-020; R&D Systems), 200 ng/ml hBMP7 (Cat No. 354-BP-010; R&D Systems), 25 ng/ml hBMP9 (Cat No. 3209-BP-010; R&D Systems), 25 ng/ml hBMP10 (Cat No. 2926-BP-025; R&D Systems), 50 ng/ml hBMP12 (Cat No. 779-G7-010; R&D Systems) and with or without VHH antibodies: C4C4 and C8C8 at 500 ng/ml; natural antagonist: mNoggin (Cat No. 1967-NG-025; R&D Systems), hNoggin (Cat No. 6057-NG; R&D Systems) and mGremlin (cat#956-GR-050; R&D Systems) at 500 ng/ml; chemical antagonist: 0.5 μM LDN-193189 (Cat No. 11802; Cayman Chemical) and 0.2 μM DMH1 (Cat No. 57146; Selleckchem).
(§7) VHH efficacy was evaluated by stimulating cells with 10 ng/ml of hBMP4 and 50 ng/ml of hBMP2, with and without increase concentrations (from 0.1-10 μg/ml) of VHH and anti-BMP4 antibodies: clone 66119, clone 3H2, clone M912262, clone PA354-16.1.1, Clone EPR6211, and anti-BMP4 (ab39973). […] Unstimulated cells were used as controls and wells with no cells used to normalize the background activity. […]

BMP5 [7] = target: T2, BMP5; test: as above; type: cell-based, mouse; parameters: purchased R&D Systems 615-BMC-020; settings: 200 ng/ml hBMP5, 16 h; VHH, Noggin, Gremlin 500 ng/ml; LDN 0.5 μM; DMH1 0.2 μM
Description: as §3
as §4, with “Cells were treated in triplicate with the BMPs at the indicated concentrations for 16 hours.” left out, “Luciferase values were normalized to background activity (activity of wells with no cells) and represented as ratio to the activity of BMP-stimulated cells.” left out

human BMP4 = test: as above; type: cell-based, mouse; settings: 10 ng/ml hBMP4, 16 h; VHH, Noggin, Gremlin 500 ng/ml; LDN 0.5 μM; DMH1 0.2 μM
Description: as §3, §4, §5, §6, §7

BMPR1a: type I BMP receptor used as control in SPR [reference compound]
Kd (BMP7): 131 nM | Kd (BMP5 [1]): 60 nM | kd (BMP2) (BMP2 [2]): 14.0 10^−5 sec^−1 | kd (BMP4) (BMP4 [3]): 9.2 10^−5 sec^−1 | Kd (BMP6): 24 nM

B1: C8-C8 (antibody, V domains shown)
V domain 1: EVQLVESGGGLVQAGGSLRLSCAASGRTFRINDMGWYRQAPGKSRDMVARITSGGNTNYADSVKGRFTISRDNAKNTVYLQMNSLKPEDTAVYYCNADGLRFDSTRYRPFDSWGQGTQVTVSS
V domain 2: B1 V domain 1
Kd (BMP4 [4]): 0.031 nM | Kd (BMP2 [5]): 0.0628 nM

B2: C4-C4 (antibody, V domains shown)
V domain 1: EVQLVESGGGLVQAGGSLRLSCAASGRTFSTYAMGWFRQAPGKEREFVAAISKGGGITYYSDSVRGRFTISKENAKNTVYLQMNSLKPEDTAVYYCAADPVSSVAKSPVAYPYWGQGTQVTVSS
V domain 2: B2 V domain 1
Kd (BMP4 [4]): 0.0097 nM | Kd (BMP2 [5]): 2.15 nM

B3: E7 (antibody, V domains shown)
VH: EVQLVESGGGLVQAGGSLRLSCAASGSIRGFVAMAWYRQAPGKQREWVATVTNGGTLYGDSVKGRFTGSRDNAKNTVYLQMNSLKPEDTAVYYCALRQIGASGYDYWGQGTQVTVSS
Kd (BMP4 [4]): 0.512 nM | Kd (BMP2 [5]): 1.07 nM

B4: C8 (antibody, V domains shown)
VH: B1 V domain 1
Kd (BMP4 [4]): 0.392 nM | Kd (BMP2 [5]): 0.88 nM

B5: C8-E7 (antibody, V domains shown)
V domain 1: B1 V domain 1
V domain 2: B3 VH
Kd (BMP4 [4]): 0.099 nM | Kd (BMP2 [5]): 0.554 nM

B6: BMPR1a (protein)
chain: QNLDSMLHGTGMKSDSDQKKSENGVTLAPEDTLPFLKCYCSGHCPDDAINNTCITNGHCFAIIEEDDQGETTLASGCMKYEGSDFQCKDSPKAQLRRTIECCRTNLCNQYLQPTLPPVVIGPFFDGSIR
Kd (BMP4 [4]): 0.635 nM

B7: D99A of C4: mutational variant of VHH C4, single substitution D99A (protein)
VHH: B2 V domain 1 with D99A
inhibition of BMP2-mediated transcriptional activation (BMP2 [6]; BMP2 50 ng/ml, 16 hours, 5 μg/ml): C4 nor its D99A mutant, had any effect

B8: Gremlin: natural BMP antagonist (R&D Systems) (protein)
chain: KKKGSQGAIPPPDKAQHNDSEQTQSPPQPGSRTRGRGQGRGTAMPGEEVLESSQEALHVTERKYLKRDWCKTQPLKQTIHEEGCNSRTIINRFCYGQCNSFYIPRHIRKEEGSFQSCSFCKPKKFTTMMVTLNCPELQPPTKKKRVTRVKQCRCISIDLD
inhibition of BMP5 signals, comparison of inhibitors (BMP5 [7]): greatly inhibit | inhibition of BMP-2 signals, comparison of inhibitors (BMP2 [6]; 50 ng/ml hBMP2, 16 h, VHH, Noggin, Gremlin 500 ng/ml, LDN 0.5 μM, DMH1 0.2 μM): greatly inhibit | inhibition of BMP4-derived signals, comparison of inhibitors (human BMP4): greatly inhibit
